Experimental data taken from US6348573B1, “Compositions and methods for identifying apoptosis signaling pathway inhibitors and activators” (The Regents of the University of Michigan, priority 1998, dated 2002).

What was measured:
[1] = target: T1, caspase-9 (Homo sapiens, UniProt P55211); assay: Co-immunoprecipitation of ARC with caspase-9; format: binding; details: 293T lysates
T1 construct: expressed in transfected cells; host or cells: human 293T cells
T1 sequence (P55211 1-416): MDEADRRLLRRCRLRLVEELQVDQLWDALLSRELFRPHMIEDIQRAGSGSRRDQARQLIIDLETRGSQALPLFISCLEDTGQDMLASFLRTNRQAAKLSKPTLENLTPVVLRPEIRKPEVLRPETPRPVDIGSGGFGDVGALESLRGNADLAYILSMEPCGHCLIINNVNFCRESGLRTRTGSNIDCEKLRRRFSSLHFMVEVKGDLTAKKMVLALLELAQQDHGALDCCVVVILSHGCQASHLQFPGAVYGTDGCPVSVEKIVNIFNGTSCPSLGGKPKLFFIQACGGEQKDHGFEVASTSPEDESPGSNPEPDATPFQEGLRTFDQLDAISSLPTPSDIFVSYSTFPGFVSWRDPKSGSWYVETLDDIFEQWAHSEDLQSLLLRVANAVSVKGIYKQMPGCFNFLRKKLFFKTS
Protocol: (§1) Briefly, 2 μg of pcDNA3 or pcDNA3-ARC-Flag or -HA was co-transfected with 3 μg of pcDNA3 or caspase expression plasmids. Total amount of transfected plasmid DNA was always 5 μg. 293T cells were harvested after 22 hr and lysed with 0.2% NP-40 isotonic lysis buffer [Z. N. Oltvai et al., Cell 74:609-619 (1993)]. For immunoprecipitation, […] of soluble protein was incubated with 10 μg/ml of polyclonal anti-Flag, monoclonal anti-AU1 or polyclonal anti-HA antibody for 2 hr at 4° C. and tagged proteins were immunoprecipitated with Protein A-Sepharose 4B (Zymed Laboratories Inc., San Francisco, Calif.). Immunoprecipitates were subjected to 12% SDS-polyacrylamide electrophoresis and immunoblotted with anti-Flag, anti-AU1 or anti-HA antibodies.

[2] = system: 293T cells; assay: β-galactosidase apoptosis assay, ARC co-transfection; format: cell-based, human
Protocol: Briefly, 2 μg of pcDNA3 or pcDNA3-ARC-Flag or -HA was co-transfected with 3 μg of pcDNA3 or caspase expression plasmids. Total amount of transfected plasmid DNA was always 5 μg. 293T cells were harvested after 22 hr and lysed with 0.2% NP-40 isotonic lysis buffer [Z. N. Oltvai et al., Cell 74:609-619 (1993)]. For immunoprecipitation, […] of soluble protein was incubated with 10 μg/ml of polyclonal anti-Flag, monoclonal anti-AU1 or polyclonal anti-HA antibody for 2 hr at 4° C. and tagged proteins were immunoprecipitated with Protein A-Sepharose 4B (Zymed Laboratories Inc., San Francisco, Calif.). Immunoprecipitates were subjected to 12% SDS-polyacrylamide electrophoresis and immunoblotted with anti-Flag, anti-AU1 or anti-HA antibodies. β-galactosidase apoptosis assay and Caspase-8 enzymatic assay: 5×10^5 293T cells were transfected with 0.3 μg of pcDNA3-β-gal plus each expression plasmid in triplicate. Cells were fixed 16 hrs after transfection, stained for β-galactosidase and assayed for morphological features of apoptosis [M. Muira et al., Cell 75:653-660 (1993)]. Statistical significance was determined by one-way ANOVA followed by Student-Neuman-Keuls post-doc comparisons. For caspase-8 enzymatic assay, 1.5×10^6 human 293T cells were co-transfected with pcDNA3, pcDNA3-ARC-Flag, pcDNA3-caspase-8 and pcDNA3-caspase-8-mt by a calcium phosphate method. Total amount of transfected plasmid DNA was always 2.5 μg. 293T cells were harvested 18hr after transfection and lysed with 0.2% NP-40 isotonic lysis buffer. Tagged proteins were immunoprecipitated and caspase activity was measured as described [N. Inohara et al., Proc. Natl. Acad. Sci. USA 94:10717-10722 (1997)].

[3] = target: c-IAP-2 (UniProt Q13489 1-604); assay: co-immunoprecipitation from co-transfected 293T cells (data not shown)
Sequence of c-IAP-2 (Q13489 whole entry): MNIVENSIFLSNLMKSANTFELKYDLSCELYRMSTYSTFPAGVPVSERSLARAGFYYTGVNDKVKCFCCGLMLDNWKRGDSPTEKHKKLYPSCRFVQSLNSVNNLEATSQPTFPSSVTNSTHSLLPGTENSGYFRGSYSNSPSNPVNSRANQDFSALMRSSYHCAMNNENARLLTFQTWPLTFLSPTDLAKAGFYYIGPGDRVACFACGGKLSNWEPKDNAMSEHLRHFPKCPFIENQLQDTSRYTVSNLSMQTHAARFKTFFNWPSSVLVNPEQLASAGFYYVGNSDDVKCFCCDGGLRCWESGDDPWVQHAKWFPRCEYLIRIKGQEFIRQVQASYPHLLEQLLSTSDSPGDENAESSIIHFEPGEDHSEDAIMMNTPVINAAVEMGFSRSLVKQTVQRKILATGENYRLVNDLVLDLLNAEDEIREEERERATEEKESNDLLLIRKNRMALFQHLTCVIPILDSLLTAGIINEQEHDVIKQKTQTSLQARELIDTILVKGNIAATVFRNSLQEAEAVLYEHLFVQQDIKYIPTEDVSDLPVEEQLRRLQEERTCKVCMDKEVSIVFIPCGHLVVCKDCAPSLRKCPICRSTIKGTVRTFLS

[4] = target: Bcl-XL (UniProt Q07817 1-233); assay: as above
Sequence of Bcl-XL (Q07817 whole entry, the tested form may be a part): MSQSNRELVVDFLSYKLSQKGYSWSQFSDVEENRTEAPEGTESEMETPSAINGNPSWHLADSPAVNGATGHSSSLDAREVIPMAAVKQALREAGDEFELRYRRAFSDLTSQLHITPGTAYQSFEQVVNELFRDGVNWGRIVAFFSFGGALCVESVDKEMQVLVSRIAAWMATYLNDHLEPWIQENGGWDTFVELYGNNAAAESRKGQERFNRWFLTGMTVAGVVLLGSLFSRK

[5] = target: T2, FADD (Fas-associated death domain protein), expressed in 293T cells (human, UniProt Q13158 1-208); assay: as above
T2 construct: also called MORT-1; pcDNA3-FADD-AU1
T2 sequence (looked up): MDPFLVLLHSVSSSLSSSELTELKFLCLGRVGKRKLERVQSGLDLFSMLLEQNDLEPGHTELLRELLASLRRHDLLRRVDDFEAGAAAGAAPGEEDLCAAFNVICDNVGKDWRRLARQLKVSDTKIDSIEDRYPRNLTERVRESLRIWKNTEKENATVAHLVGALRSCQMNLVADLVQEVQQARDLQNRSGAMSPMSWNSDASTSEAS

[6] = target: T3, caspase-1 (Homo sapiens, UniProt P29466); assay: Co-immunoprecipitation of ARC with caspase-1; format: binding; details: 293T lysates
T3 construct: expressed in transfected cells; host or cells: human 293T cells
T3 sequence (P29466 120-404): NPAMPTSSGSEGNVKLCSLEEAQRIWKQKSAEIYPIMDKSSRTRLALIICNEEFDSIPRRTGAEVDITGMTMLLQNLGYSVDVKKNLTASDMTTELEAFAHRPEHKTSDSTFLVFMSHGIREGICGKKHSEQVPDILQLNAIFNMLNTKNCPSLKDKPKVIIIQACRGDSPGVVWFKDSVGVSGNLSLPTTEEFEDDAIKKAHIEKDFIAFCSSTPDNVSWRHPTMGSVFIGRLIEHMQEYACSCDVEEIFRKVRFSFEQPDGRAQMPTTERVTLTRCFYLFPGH
Protocol: as §1

[7] = target: T4, CED-3 (Caenorhabditis elegans, UniProt P42573); assay: Co-immunoprecipitation of ARC with CED-3; format: binding, C. elegans; details: 293T lysates
T4 construct: expressed in transfected cells; host or cells: human 293T cells
T4 sequence (P42573 222-503): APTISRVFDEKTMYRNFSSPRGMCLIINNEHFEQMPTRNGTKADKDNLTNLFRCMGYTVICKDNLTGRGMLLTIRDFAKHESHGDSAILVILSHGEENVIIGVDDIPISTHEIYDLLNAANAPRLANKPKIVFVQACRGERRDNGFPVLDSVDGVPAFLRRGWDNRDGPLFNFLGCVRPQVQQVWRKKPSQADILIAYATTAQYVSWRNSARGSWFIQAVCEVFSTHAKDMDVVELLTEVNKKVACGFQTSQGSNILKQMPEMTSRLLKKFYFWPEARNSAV
Protocol: as §1

[8] = target: T5, caspase-8 (Homo sapiens, UniProt Q14790); assay: Co-immunoprecipitation of ARC with caspase-8; format: binding; details: caspase-8 deletion mutant
T5 construct: expressed in transfected cells; host or cells: human 293T cells
T5 sequence (Q14790 1-215 isoform Q14790-4): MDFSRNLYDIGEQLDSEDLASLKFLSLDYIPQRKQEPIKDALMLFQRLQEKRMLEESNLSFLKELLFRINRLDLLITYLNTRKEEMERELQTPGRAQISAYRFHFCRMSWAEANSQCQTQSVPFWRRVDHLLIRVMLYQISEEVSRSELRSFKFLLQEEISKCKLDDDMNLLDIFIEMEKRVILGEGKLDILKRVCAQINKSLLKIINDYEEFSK
Protocol: as §1

[9] = system: caspase-8; assay: Co-immunoprecipitation of ARC with caspase-8; format: binding, human; details: 293T lysates
Protocol: as §1

[10] = system: FADD, RAIDD, Bcl-XL, and c-IAP-2; assay: Association of ARC with other apoptosis regulatory molecules; format: binding; details: data not shown
Protocol: as §1

B1: human ARC (Apoptosis Repressor with CARD domain), C-terminally Flag- or HA-tagged (other)
chain: MGNAQERPSETIDRERKRLVETLQADSGLLLDALLARGVLTGPEYEALDALPDAERRVRRLLLLVQGKGEAACQELLRCAQRTAGAPDPAWDWQHVGPGYRDRSYDPPCPGHWTPEAPGSGTTCPGLPRASDPDEAGGPEGSEAVQSGTPEEPEPELEAEASKEAEPEPEPEPELEPEAEAEPEPELEPEPDPEPEPDFEERDESEDS
notes: Entire open reading frame expressed in 293T cells; The two tagged constructs are merged here; also called ARC-Flag; ARC-HA; not shown: C-terminal FLAG or HA tag
With B1 the “co-immunoprecipitation with caspase-9” value [1] was “not”, the “induction of apoptosis by expression of ARC” value ([2]; ARC alone) was “did not induce apoptosis” and the “apoptosis induced by C. elegans CED-3” value ([2]; co-expression with ARC) was “inhibited”. For the same molecule, the “apoptosis induced by CLARP” value ([2]; co-expression with ARC) was “inhibited”, the “apoptosis induced by FADD” value ([2]; co-expression with ARC) was “inhibited” and the “apoptosis induced by TRADD” value ([2]; co-expression with ARC) was “inhibited”. For the same molecule, the “apoptosis induced by caspase-8” value ([2]; co-expression with ARC) was “inhibited caspase-8-induced killing in a dose-dependent manner”, the “apoptosis induced by stimulation of CD95/Fas receptor” value ([2]; co-expression with ARC) was “partially but significantly inhibited” and the “apoptosis induced by stimulation of TNF-R1 receptor” value ([2]; co-expression with ARC) was “partially but significantly inhibited”. The “apoptosis induced by stimulation of TRAMP/DR3 receptor” value ([2]; co-expression with ARC) was “partially but significantly inhibited”, the “apoptosis mediated by caspase-9” value ([2]; co-expression with ARC) was “not” and the binding result [3] was “no binding”. The binding result [4] was “no binding”, the binding result [5] was “no binding” and the “co-immunoprecipitation with caspase-1” value [6] was “not”. For the same molecule, the “co-immunoprecipitation with CED-3” value [7] was “co-immunoprecipitated”, the “association with the N-terminal death effector domain (DED) of caspase-8” value [8] was “associated” and the “co-immunoprecipitation with caspase-8” value [9] was “co-immunoprecipitated”. The “association with FADD, RAIDD, Bcl-XL, and c-IAP-2” value [10] was “did not associate”.
